This assay deals with human RANK-L (human) (UniProt O14788). Briefly: cell-based or functional assay.
human RANK-L (human), sequence (O14788 140-317 limits assumed): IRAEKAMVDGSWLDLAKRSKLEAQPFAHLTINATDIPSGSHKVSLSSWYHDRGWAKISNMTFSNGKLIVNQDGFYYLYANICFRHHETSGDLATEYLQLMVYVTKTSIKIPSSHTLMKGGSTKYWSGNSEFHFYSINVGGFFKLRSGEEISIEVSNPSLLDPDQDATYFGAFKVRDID

In the case of “osteoprotegerin (from UniProt O00300 22-401) (receptor)”, the RANK-L induced NF-kappaB activation (luciferase reporter, HEK293T cells), IC50 came out at 6.03 nM.

Source of the values: patent US20110002929A1.
